Source: publication PMC9714371, “Haemophilus influenzae Protein D antibody suppression in a multi‐component vaccine formulation” (FEBS Open Bio, 2022)
Where “and” joins values, the source holds several entries; their conditions need not be identical. Identical values can stand only once.

B1: His‐tagged Protein D (non‐lipidated, N‐terminal signal sequence removed) (natural protein)
chain: CSSHSSNMANTQMKSDKIIIAHRGASGYLPEHTLESKALAFAQHSDYLEQDLAMTKDGRLVVIHDHFLDGLTDVAKKFPYRHRKDGRYYVIDFTLKEIQSLEMTENFETKDGKQAQVYPNRFPLWKSHFRIHTFEDEIEFIQGLEKSTGKKVGIYPEIKAPWFHHQNGKDIATETLKVLKKYGYDKKTDMVYLQTFDFNELKRIKTELLPQMGMDLKLVQLIAYTDWKETQEKDPKGYWVNYNYDWMFKPGAMAEVVKYADGVGPGWYMLVNKEESKPDNIVYTPLVKELAQYNVEVHPYTVRKDALPEFFTDVNQMYDALLNKSGATGVFTDFPDTGVEFLKGIK
notes: Gene bought from GenScript, in pET21a; also called PD; His‐tagged PD; source: E. coli BL‐21*, IPTG induced; not shown: His6, N-terminal, kept
B2: His‐tagged outer membrane protein 26 (OMP26) (natural protein)
chain: EEKIAFINAGYIFQHHPDRQAVADKLDAEFKPVAEKLAASKKEVDDKIAAARKKVEAKVAALEKDAPRLRQADIQKRQQEINKLGAAEDAELQKLMQEQDKKVQEFQAQNEKRQAEERGKLLDSIQTATNNLAKAKGYTYVLDANSIVFAVEGKDITEEVLKSIPASEKAQEKK
notes: OMP26, 26-kDa outer membrane protein of Haemophilus influenzae, homolog of E. coli Skp; Gene bought from GenScript; Predominantly trimers by native MS and SEC, with hexamers in low abundance; also called His‐tagged OMP26; source: E. coli BL‐21*, IPTG induced; not shown: His6, N-terminal, kept

Target: the molecule itself
Assay: native MS; nano-electrospray native MS with ion mobility (Waters Synapt G2); His-tagged proteins in 200 mM ammonium acetate pH 6.8, 5 μM; PD alone, OMP26 alone, 1:1 mixture

Protein	stoichiometry N
B1	2 and 4
B2	3 and 6
